According to US7144731B2, “SCF antibody compositions and methods of using the same” (Amgen Inc., priority 1989, dated 2006):

System: Steel-Dickie (S1/S1^d) mice
Test: In vivo activity in Steel-Dickie mice
Parameters: species or system mouse
Conditions: 100 μg/kg/day 30 days then 30 μg/kg/day 20 days, s.c.
Experimental: Steel mice provide a sensitive in vivo model for SCF activity. Different recombinant SCF proteins were tested in Steel-Dickie (S1/S1^d) mice for varying lengths of time. Six to ten week old Steel mice (WCB6F1-S1/S1^d) were purchased from Jackson Labs, Bar Harbor, Me. Peripheral blood was monitored by a SYSMEX F-800 microcell counter (Baxter, Irvine, Calif.) for red cells, hemoglobin, and platelets. For enumeration of peripheral white blood cell (WBC) numbers, a Coulter Channelyzer 256 (Coulter Electronics, Marietta, Ga.) was used.
In the experiment in FIG. 24, Steel-Dickie mice were treated with E. coli derived SCF^1-164, purified as in Example 10, at a dose of 100 μg/kg/day for 30 days, then at a dose of 30 μg/kg/day for an additional 20 days. The protein was formulated in injectable saline (Abbott Labs, North Chicago, Ill.) +0.1% fetal bovine serum. The injections were performed daily, subcutaneously. The peripheral blood was monitored via tail bleeds of ˜50 μl at the indicated times in FIG. 24. The blood was collected into 3% EDTA coated syringes and dispensed into powdered EDTA microfuge tubes (Brinkmann, Westbury, N.Y.). […]
Whole blood was stained for T lymphocyte subsets as follows. […] Each sample of blood was then analyzed on a FACScan cell analysis system (Becton Dickinson, Mountain View, Calif.). […]

B1: rrSCF^1-164: recombinant rat SCF^1-164 from E. coli, also used ^125I-labelled (protein)
chain: QEICRNPVTDNVKDITKLVANLPNDYMITLNYVAGMDVLPSHCWLRDMVTHLSVSLTTLLDKFSNISEGLSNYSIIDKLGKIVDDLVACMEENAPKNVKESLKKPETRNFTPEEFFSIFNRSIDAFKDFMVASDTSDCVLSSTLGPEKDSRVSVTKPFMLPPVA
macrocytic anemia (hematocrit, mean red cell volume): significant correction of the macrocytic anemia
